Legend:
[1] = biological target: T1, IL-2Rα in human Fc fusion protein format (ACROBiosystems) (human, UniProt P01589 22-217, limits assumed); assay: Octet QKe (biolayer interferometry): IL-2Rα-human Fc on AHC sensors, serial dilutions of the IL-2 variant [cont.]
T1 construct: Bought reagent, captured on anti-Human IgG Fc Capture (AHC) sensors; also called CD25; not shown: human Fc
T1 sequence (looked up): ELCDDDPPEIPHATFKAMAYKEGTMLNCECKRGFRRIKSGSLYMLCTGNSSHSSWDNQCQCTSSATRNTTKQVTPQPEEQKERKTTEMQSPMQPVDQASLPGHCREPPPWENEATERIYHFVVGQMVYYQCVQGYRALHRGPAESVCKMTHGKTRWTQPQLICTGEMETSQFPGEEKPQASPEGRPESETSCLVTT
Description: IL-2Rα or IL-2Rβ in human Fc fusion protein format (ACROBiosystems) were captured on anti-Human IgG Fc Capture (AHC) sensors. […] Dissociation was detected following transfer of sensors into wells containing buffer alone. Data were collected and analyzed by Octet User Software. For analysis of the kinetics constants, 1:1 curve fitting model was used.

[2] = biological target: T2, IL-2Rαβγ on human T cells (human, UniProt P01589 22-272; P14784 27-551; P31785 23-369); assay: cell-based or functional assay
T2 sequence (looked up) 1: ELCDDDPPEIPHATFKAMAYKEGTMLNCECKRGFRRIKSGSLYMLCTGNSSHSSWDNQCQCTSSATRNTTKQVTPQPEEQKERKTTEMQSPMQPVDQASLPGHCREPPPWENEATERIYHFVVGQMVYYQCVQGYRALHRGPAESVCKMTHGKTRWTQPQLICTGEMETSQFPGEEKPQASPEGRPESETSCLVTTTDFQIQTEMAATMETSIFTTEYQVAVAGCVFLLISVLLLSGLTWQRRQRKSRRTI
T2 sequence (looked up) 2: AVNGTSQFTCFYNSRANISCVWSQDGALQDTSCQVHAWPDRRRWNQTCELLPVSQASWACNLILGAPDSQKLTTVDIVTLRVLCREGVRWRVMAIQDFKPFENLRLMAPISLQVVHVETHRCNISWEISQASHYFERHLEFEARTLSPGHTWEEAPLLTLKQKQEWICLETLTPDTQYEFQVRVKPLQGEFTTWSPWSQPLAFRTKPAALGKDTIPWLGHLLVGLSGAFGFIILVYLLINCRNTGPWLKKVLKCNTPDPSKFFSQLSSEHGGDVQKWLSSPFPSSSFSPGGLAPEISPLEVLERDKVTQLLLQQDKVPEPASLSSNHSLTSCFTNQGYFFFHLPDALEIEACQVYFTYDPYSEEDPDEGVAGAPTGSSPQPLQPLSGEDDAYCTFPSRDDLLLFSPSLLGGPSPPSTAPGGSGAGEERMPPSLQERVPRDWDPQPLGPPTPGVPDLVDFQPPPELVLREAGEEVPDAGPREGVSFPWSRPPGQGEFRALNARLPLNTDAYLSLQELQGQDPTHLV
T2 sequence (looked up) 3: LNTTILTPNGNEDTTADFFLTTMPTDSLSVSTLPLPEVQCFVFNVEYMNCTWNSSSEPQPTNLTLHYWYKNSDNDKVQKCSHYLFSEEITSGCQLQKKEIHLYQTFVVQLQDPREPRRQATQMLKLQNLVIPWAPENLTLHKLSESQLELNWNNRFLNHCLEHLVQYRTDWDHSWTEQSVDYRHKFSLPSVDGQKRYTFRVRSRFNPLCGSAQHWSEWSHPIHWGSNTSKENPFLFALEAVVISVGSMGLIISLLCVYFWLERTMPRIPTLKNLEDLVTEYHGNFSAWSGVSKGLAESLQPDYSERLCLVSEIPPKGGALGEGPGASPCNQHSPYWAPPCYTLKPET

[3] = biological target: T3, IL-2Rβγ on human CD8+CD45RA+CD25low naïve T cells (human, UniProt P14784 27-551; P31785 23-369); assay: cell-based or functional assay
T3 sequence (looked up) 1: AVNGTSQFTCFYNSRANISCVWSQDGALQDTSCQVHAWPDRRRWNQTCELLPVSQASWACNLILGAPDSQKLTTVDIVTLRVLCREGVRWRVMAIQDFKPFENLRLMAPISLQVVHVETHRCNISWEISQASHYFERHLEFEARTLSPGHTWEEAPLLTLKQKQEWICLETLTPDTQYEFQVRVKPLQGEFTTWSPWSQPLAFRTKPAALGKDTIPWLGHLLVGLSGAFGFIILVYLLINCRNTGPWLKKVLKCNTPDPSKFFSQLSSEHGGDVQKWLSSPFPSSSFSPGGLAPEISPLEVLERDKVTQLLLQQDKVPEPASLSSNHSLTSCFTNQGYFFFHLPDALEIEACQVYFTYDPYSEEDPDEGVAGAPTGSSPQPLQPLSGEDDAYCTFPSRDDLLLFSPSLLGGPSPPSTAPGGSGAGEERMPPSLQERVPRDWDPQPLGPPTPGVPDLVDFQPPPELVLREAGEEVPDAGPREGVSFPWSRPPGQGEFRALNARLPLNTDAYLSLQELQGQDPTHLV
T3 sequence (looked up) 2: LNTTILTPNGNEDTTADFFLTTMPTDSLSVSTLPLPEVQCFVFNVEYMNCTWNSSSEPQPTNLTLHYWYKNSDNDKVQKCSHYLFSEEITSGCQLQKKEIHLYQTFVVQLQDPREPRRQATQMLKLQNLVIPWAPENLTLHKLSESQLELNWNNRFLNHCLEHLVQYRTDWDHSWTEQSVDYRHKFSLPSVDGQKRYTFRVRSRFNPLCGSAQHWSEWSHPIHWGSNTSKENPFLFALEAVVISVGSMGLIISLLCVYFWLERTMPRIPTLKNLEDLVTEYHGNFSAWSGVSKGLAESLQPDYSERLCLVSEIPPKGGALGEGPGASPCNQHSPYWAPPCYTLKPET

B1: Y31C-PEG20 + F42K (ligand)
chain: APTSSSTKKTQLQLEHLLLDLQMILNGINNCKNPKLTRMLTKKFYMPKKATELKHLQCLEEELKPLEEVLNLAQSKNFHLRPRDLISNINVIVLELKGSETTFMCEYADETATIVEFLNRWITFSQSIISTLT
modifications: maleimide-PEG 20K on Cys 31
notes: rhIL-2 (C125S) background with Y31C and F42K, PEGylated at Cys 31; not shown: His tag
- binding result [1]: no binding (tested: not printed)
- EC50 of STAT5 phosphorylation, CD25+CD4+ T (IL-2Rαβγ) [2]: 1.65 µg/mL
- EC50 of STAT5 phosphorylation, CD25-CD8+ naïve T (IL-2Rβγ) [3]: 1.6 µg/mL

Source: patent publication US20220289806A1 (CYTIMM THERAPEUTICS, published 2022)
